Measurements from patent publication US11618906B2, “Hydroxylation techniques” (HYPHA DISCOVERY LTD., priority 2018, dated 2023).
Where a chain is given by its changes, count along the chain named. Names and notes keep the numbering of the source.

B1: aluC09M34: cytochrome P450 aluC09 mutant T291M; amino acid sequence SEQ ID NO: 48 (protein, listed as Amycolatopsis lurida)
chain: MTDVEETTATLPLARKCPFSPPPEYERLRRESPVSRVGLPSGQTAWALTRLEDIREMLSSPHFSSDRQSPSFPLMVARQIRREDKPFRPSLIAMDPPEHSRARRDVVGEFTVKRMKALQPRIQQIVDEHLDALLAGPKPADLVQALSLPVPSLVICELLGVPYSDHEFFQSCSSRMLSREVTAEERMTAFEQLENYLDELVTKKEANATEDDLLGRQILKQRETGEADHGELVGLAFLLLIAGHETTANMISLGTVTLLENPDQLAKIKADPGKTLAAIEELLRVFTIAEMATSRFATADVEIGGTLIRAGEGVVGLSNAGNHDPDGFENPDTFDIERGARHHVAFGFGVHQCLGQNLARLELQIVFDTLFRRVPGLRIAVPVDELPFKHDSTIYGLHALPVTW
B2: aluC09M11: cytochrome P450 aluC09 mutant T291D; amino acid sequence SEQ ID NO: 8 (protein, listed as Amycolatopsis lurida)
chain: B1 chain with M291D
B3: aluC09M19: cytochrome P450 aluC09 mutant T291A; amino acid sequence SEQ ID NO: 24 (protein, listed as Amycolatopsis lurida)
chain: B1 chain with M291A
B4: aluC09M20: cytochrome P450 aluC09 mutant T291V; amino acid sequence SEQ ID NO: 28 (protein, listed as Amycolatopsis lurida)
chain: B1 chain with M291V

Assay: Metabolism of tofacitinib by P450 aluC09 and mutants
Assay type: biochemical
Settings: percent of substrate being converted; 0.125 mg/ml, 27° C., 16-20 hours; [CYP] per enzyme as in Table 8
Method: (§1) Lyophilised material of mutants of CYP450aluC09, ferredoxinaluF03 and ferredoxin reductaseSCF15A was made as described in examples 3 and 4 and suspended in water (0.5 mL per vial) and biocatalysis was performed at 27° C. in the following conditions: 50 mM potassium phosphate pH 7.4, 5 mM MgCl2, 0.125 mg/ml substrate compound such as diclofenac (Sigma-Aldrich, UK), Aceclofenac (Tokyo Chemical Industry UK Ltd, UK), Indomethacin (Sigma-Aldrich, UK), Flufenamic acid (Sigma-Aldrich, UK), Napropamide (Sigma-Aldrich, UK), celecoxib (LC Laboratories, USA), valsartan (Tokyo Chemical Industry UK Ltd, UK), ruxolitinib (LC Laboratories, USA), 4-pyrrolidylacetophenone (Sigma-Aldrich, UK), tofacitinib (LC Laboratories, USA), bosentan (CarboSynth Ltd, UK), buparvaquone (MedChemtronica, Sweden), BIRB796 (Stratech Scientific Limited, UK), epothilone B (LC Laboratories, USA), ritonavir (Tokyo Chemical Industry UK Ltd, UK) or tivantinib (MedChemtronica, Sweden), P450AluC09 (concentration as in Table 8), 5 mM G6P, 1 mM NADP, 2 UN/ml G6PDH in a final volume of 100 μL. After 16-20 hours at 200 rpm (5 cm orbital shaker, Kuhner AG, Switzerland), reactions were extracted with an equal volume of acetonitrile, centrifuged to remove precipitated proteins and conversion assessed by UPLC-MS analysis.
(§2) However, of particular note when considering P450 concentration are the results for mutants M12, M20 and M34, as well as the deleterious impact on the range of substrate utility in mutants M39 and M40.

| Molecule | % conversions (avg) Tofacitinib |
| --- | --- |
| B1 | 3.1% |
| B2 | 1.4% |
| B3 | 0% |
| B4 | 4.5% |

Assay: Metabolism of celecoxib by P450 aluC09 and mutants
Assay type: biochemical
Settings: percent of substrate being converted; 0.125 mg/ml, 27° C., 16-20 hours; [CYP] per enzyme as in Table 8
Method: as §1, §2

| Molecule | % conversions (avg) Celecoxib |
| --- | --- |
| B1 | 6.8% |
| B2 | 3.2% |
| B3 | 4.5% |
| B4 | 2.2% |

Assay: Metabolism of buparvaquone by P450 aluC09 and mutants
Assay type: biochemical
Settings: percent of substrate being converted; 0.125 mg/ml, 27° C., 16-20 hours; [CYP] per enzyme as in Table 8
Method: as §1, §2

| Molecule | % conversions (avg) Buparvaquone |
| --- | --- |
| B1 | 11.6% |
| B2 | 15.8% |
| B3 | 17.1% |
| B4 | 15.4% |

Assay: Metabolism of bosentan by P450 aluC09 and mutants
Assay type: biochemical
Settings: percent of substrate being converted; 0.125 mg/ml, 27° C., 16-20 hours; [CYP] per enzyme as in Table 8
Method: as §1, §2

| Molecule | % conversions (avg) Bosentan |
| --- | --- |
| B1 | 99% |
| B2 | 100% |

Assay: Hydroxylation of flufenamic acid catalysed by cytochrome P450 aluC09 and mutants
Assay type: biochemical
Settings: % by UV peak area at 275 nm; 0.125 mg/ml substrate, 27° C., 16-20 hours
Method: as §1
(§3) UPLC data was obtained as follows:
(§4) Column: Acquity UPLC BEH Shield RP18 1.7 μm 2.1 mm i.d. 50 mm length
(§5) Solvents: H2O, B: Acetonitrile, both with 0.1% Formic acid
(§6) Detector: Waters Acquity UPLC PDA (UV-Vis detection) and Waters Acquity UPLC QDA (MS)
Flufenamic acid elutes at 1.93 minutes, hydroxy-flufenamic acid 1 elutes at 1.68 minutes and hydroxy-flufenamic acid 2 elutes at 1.65 minutes.

| Molecule | Flufenamic Acid (Substrate) 1.93 mins | Hydroxy-Flufenamic Acid (1) 1.69 mins | Hydroxy-Flufenamic Acid (2) 1.65 mins |
| --- | --- | --- | --- |
| B1 | 94.0% | 3.8% | 2.2% |
| B2 | 94.7% | 3.4% | 1.9% |
| B3 | 90.4% | 5.8% | 3.8% |
| B4 | 93.6% | 4.4% | 2.0% |

Same assay, conditions: flufenamic acid; ratio of UV peak areas at 275 nm

| Molecule | Hydroxylated Ratio 1:2 |
| --- | --- |
| B1 | 1.7 |
| B2 | 1.8 |
| B3 | 1.5 |
| B4 | 2.2 |

Assay: Metabolism of epothilone B by P450 aluC09 and mutants
Assay type: biochemical
Settings: percent of substrate being converted; 0.125 mg/ml, 27° C., 16-20 hours; [CYP] per enzyme as in Table 8
Method: as §1, §2

| Molecule | % conversions (avg) Epothilone B |
| --- | --- |
| B1 | 30.7% |
| B2 | 8.5% |
| B3 | 4.5% |
| B4 | 21.1% |

Assay: Metabolism of 4-pyrrolidylacetophenone by P450 aluC09 and mutants
Assay type: biochemical
Settings: percent of substrate being converted; 0.125 mg/ml, 27° C., 16-20 hours; [CYP] per enzyme as in Table 8
Method: as §1, §2

| Molecule | % conversions (avg) 4-pyrrolidylacetophenone |
| --- | --- |
| B1 | 7.3% |
| B2 | 21.4% |
| B3 | 0.7% |

Assay: Metabolism of ruxolitinib by P450 aluC09 and mutants
Assay type: biochemical
Settings: percent of substrate being converted; 0.125 mg/ml, 27° C., 16-20 hours; [CYP] per enzyme as in Table 8
Method: as §1, §2

| Molecule | % conversions (avg) Ruxolitinib |
| --- | --- |
| B2 | 35.7% |
| B3 | 50.8% |
| B4 | 70.7% |

Assay: Metabolism of ritonavir by P450 aluC09 and mutants
Assay type: biochemical
Settings: percent of substrate being converted; 0.125 mg/ml, 27° C., 16-20 hours; [CYP] per enzyme as in Table 8
Method: as §1, §2

| Molecule | % conversions (avg) Ritonavir |
| --- | --- |
| B1 | 50.3% |
| B2 | 57.3% |
| B3 | 65.4% |
| B4 | 100% |

Assay: Hydroxylation / de-N-ethylation of napropamide catalysed by cytochrome P450 aluC09 and mutants
Assay type: biochemical
Settings: % by UV peak area at 275 nm; 0.125 mg/ml substrate, 27° C., 16-20 hours
Method: as §1, §3, §4, §5, §6
Napropamide elutes at 1.76 minutes, unidentified metabolite (−2 Da) elutes at 1.90 minutes, desethyl-napropamide elutes at 1.62 minutes, hydroxy-napropamide 1 elutes at 1.53 minutes and hydroxy-napropamide 2 elutes at 1.52 minutes and the desethyl-hydroxy-napropamide product elutes at 1.41 minutes.

| Molecule | Desethyl Napropamide (1.62 min) | Desethyl-hydroxy-Napropamide (1.41 min) | Hydroxy-Napropamide (1) (1.53 min) | Hydroxy-Napropamide (2), (1.52 min) | M-2Da (unidentified) (1.89 min) | Napropamide (substrate) |
| --- | --- | --- | --- | --- | --- | --- |
| B1 | 40.7% | 5.3% | 3.4% | 3.7% | 5.3% | 44.0% |
| B2 | 36.6% | 8.7% | 1.5% | 3.1% | 6.7% | 47.6% |
| B3 | 50.1% | 4.9% | 2.3% | 3.9% | 6.1% | 34.3% |
| B4 | 56.2% | 7.6% | 2.1% | 6.1% | 4.7% | 25.3% |

Same assay, conditions: napropamide; ratio of UV peak areas

| Molecule | Hydroxylated Ratio 2:1 |
| --- | --- |
| B1 | 1.1 |
| B2 | 2.1 |
| B3 | 1.7 |
| B4 | 2.9 |

Assay: Hydroxylation of aceclofenac catalysed by cytochrome P450 aluC09 and mutants
Assay type: biochemical
Settings: % by UV peak area at 275 nm; 0.125 mg/ml substrate, 27° C., 16-20 hours
Method: as §1, §3, §4, §5, §6
Chromatograms are provided in FIGS. 5a-c; aceclofenac elutes at 1.80 minutes, hydroxy-aceclofenac acid 1 elutes at 1.64 minutes, hydroxy-aceclofenac acid 2 elutes at 1.60 minutes and dihydroxy-aceclofenac elutes at 1.42 minutes.

| Molecule | Aceclofenac (Substrate) (1.80 mins) | Dihydroxy-Aceclofenac (1.42 mins) | Hydroxy-Aceclofenac (1) (1.64 min) | Hydroxy-Aceclofenac (2) (1.60 min) |
| --- | --- | --- | --- | --- |
| B1 | 36.6% | 21.3% | 15.2% | 26.8% |
| B2 | 17.5% | 35.2% | 6.3% | 41.0% |
| B3 | 6.7% | 48.3% | 6.5% | 38.5% |
| B4 | 4.2% | 35.1% | 33.1% | 27.6% |

Same assay, conditions: aceclofenac; ratio of UV peak areas at 275 nm

| Molecule | Hydroxylated Ratio 2:1 |
| --- | --- |
| B1 | 1.8 |
| B2 | 6.5 |
| B3 | 5.9 |
| B4 | 0.8 |

Assay: Hydroxylation of diclofenac catalysed by cytochrome P450 aluC09 and mutants (UPLC-PDA-MS)
Assay type: biochemical
Settings: % by UV peak area at 275 nm; 0.125 mg/ml substrate, 27° C., 16-20 hours
Method: as §1, §3, §4, §5, §6
Illustrative results for the hydroxylation of diclofenac by CYP450aluC09 and selected T291x mutants are summarised below in Table 3 with representative chromatograms resented in FIG. 3a-c; retention times: diclofenac 1.85-1.88 minutes, 5-hydroxydiclofenac 1.60-1.63 minutes, 4′-hydroxydiclofenac 1.65-1.68 minutes, 4′,5-dihydroxydiclofenac 1.40-1.42 minutes. The chromatographic retention times and mass spectra coincided with those of authentic samples.

| Molecule | 4′,5-dihydroxy-diclofenac 1.38 mins | 4′-hydroxy-diclofenac (1) 1.62 mins | 5-hydroxy-diclofenac (2) 1.58 mins | Diclofenac (Substrate) 1.81 mins |
| --- | --- | --- | --- | --- |
| B1 | 1.3% | 35.3% | 10.4% | 53.6% |
| B2 | 2.3% | 25.3% | 25.1% | 48.3% |
| B3 | 2.4% | 50.0% | 14.2% | 34.8% |
| B4 | 3.1% | 50.1% | 13.7% | 34.8% |

Same assay, conditions: diclofenac; ratio of UV peak areas at 275nm

| Molecule | Hydroxylated Ratio hydroxy 1:hydroxy 2 |
| --- | --- |
| B1 | 3.4 |
| B2 | 1.0 |
| B3 | 3.5 |
| B4 | 3.7 |

Assay: Metabolism of valsartan by P450 aluC09 and mutants
Assay type: biochemical
Settings: percent of substrate being converted; 0.125 mg/ml, 27° C., 16-20 hours; [CYP] per enzyme as in Table 8
Method: as §1, §2

| Molecule | % conversions (avg) Valsartan |
| --- | --- |
| B1 | 43.2% |
| B2 | 26% |
| B4 | 13.1% |

Assay: O-demethylation of indomethacin catalysed by cytochrome P450 aluC09 and mutants
Assay type: biochemical
Settings: % by UV peak area at 275 nm; 0.125 mg/ml substrate, 27° C., 16-20 hours
Method: as §1, §3, §4, §5, §6

| Molecule | Indomethacin (1.74 mins) | O-demethyl-Indomethacin (1.52 mins) |
| --- | --- | --- |
| B1 | 96.2% | 3.8% |
| B2 | 92.6% | 7.4% |
| B3 | 93.5% | 6.5% |
| B4 | 89.2% | 10.8% |

Assay: Metabolism of tivantinib by P450 aluC09 and mutants
Assay type: biochemical
Settings: percent of substrate being converted; 0.125 mg/ml, 27° C., 16-20 hours; [CYP] per enzyme as in Table 8
Method: as §1, §2

| Molecule | % conversions (avg) Tivantinib |
| --- | --- |
| B1 | 59.1% |
| B2 | 34.2% |
| B3 | 26.1% |
| B4 | 22.2% |

Assay: Metabolism of BIRB796 by P450 aluC09 and mutants
Assay type: biochemical
Settings: percent of substrate being converted; 0.125 mg/ml, 27° C., 16-20 hours; [CYP] per enzyme as in Table 8
Method: as §1, §2

| Molecule | % conversions (avg) BIRB796 |
| --- | --- |
| B1 | 18% |
| B3 | 16.6% |
| B4 | 22.4% |
